Our source for the binding result and Kd values is article PMC7887213 (Nature Communications, 2021).

Conditions in all cases: both partners purified
For one assay, the target named is T1, NPNA3 peptide (Plasmodium falciparum (synthetic CSP …)).
T1 construct: source: synthetic peptide, bought: Innopep Inc
The assay is described as follows: crystal structure; Fab at 10 mg/ml mixed with peptide at 1:5 molar ratio of Fab to peptide; sitting drop vapor diffusion.

For assay [1], the target named is T2, NPNA4 peptide (Ac-[residues removed]-NH2) (Plasmodium falciparum (synthetic CSP …).
T2 construct: source: synthetic peptide, bought: Innopep Inc
Put plainly: ITC; peptide in the syringe, Fab (~10 uM) in the cell; DPBS; 25 C; single-site binding model; triplicate; apparent affinity. In general terms: Isothermal titration calorimetry measures the heat released or taken up as one component is titrated into another.

Assay [2] has as its target T3, NPNA6 peptide (Ac-[residues removed]-NH2) (Plasmodium falciparum (synthetic CSP …).
T3 construct: source: synthetic peptide, bought: Innopep Inc
The description is as above.

For assay [3], the target named is T4, NPNA2 peptide (Ac-[residues removed]-NH2) (Plasmodium falciparum (synthetic CSP …).
T4 construct: source: synthetic peptide, bought: Innopep Inc
The assay is described as follows: crystal structure; Fab at 10 mg/ml mixed with peptide at 1:5 molar ratio of Fab to peptide; sitting drop vapor diffusion.

In assay [4] the target is T4, NPNA2 peptide (Ac-[residues …). The assay is described as follows: ITC; peptide in the syringe, Fab (~10 uM) in the cell; DPBS; 25 C; single-site binding model; triplicate; apparent affinity.

B1: Fab399 (Fab, V domains shown)
VH: EVQLVESGGGLVQPGRSLRLSCTTSGFTFGDYAMSWFRQAPGKGLEWVGFIRSKGFGGTAEYAAFVKGRFTISRDDSRSIAYLQMTSLKPEDTAVYYCSRVGVVIATAVYWGQGTLVTVSS
VL: DILMTQTPLSLSVTPGQPASISCKSSQSLLDNDGKTYLYWYLQKPGQSPQLLIYEVSNRFSGVPERFSGSGSGTDFTLKIRRVEAEDVGVYYCMQRIDLPWTFGQGTKVEIK
notes: also called mAb399; source: ExpiCHO cells, purified (HiTrap Protein G, SEC)
In the case of B1, the binding result with NPNA3 peptide is given as “binds”. The Kd is 5920 nM in assay [1] and 94 nM in assay [2].

B2: Fab395 with elbow mutations in the heavy chain (crystallised form) (Fab, V domains shown)
VH: QEQLVESGGGVVQPGRSLRLSCAAASEFCFSCYGMHWVRQAPGKGLEWVAVIWHDGSNQHFADSVKGRFTISRDNSKNIMYLQMNSLRAEDTAVYYCASATRYDILTGAFDYWGQGTLVTVVS
VL: DIQMTQSPSTLSASVGDRVTITCRASQSISTWLAWYQQKPGKAPKLLIYKASSLESGVPSRFSGSGSGTEFTLTISSLQPDDFATYYCQQYSRYWTFGQGTKVEIK
notes: source: ExpiCHO cells, purified (HiTrap Protein G, SEC)
Turning to B2, the binding result in assay [3] is given as “binds”.

B3: Fab356 (Fab, V domains shown)
VH: VQLVESGGGVVQPGRSLRLSCAASGFTFRNFGMHWVRQTPGKGLEWVAVIWHDGSNKFYADSVEGRFTISRDNSKNMIYLQMNSLRVEDTAIYYCARDSLFYDHDNSGYYGYWGQGTLVTVSS
VL: QIVMTQSPATVSVSPGERATLSCRASRSVTSKLAWYQQKPGQAPRLLIYGASTRATGIPARFSGSGSGTEFTLTISSLQSEDFAVYFCQQYNNGFTFGPGTKVDFK
notes: also called mAb356; source: ExpiCHO cells, purified (HiTrap Protein G, SEC)
In the case of B3, the Kd came to 8270 nM in assay [4], 82 nM in assay [1] and 30 nM in assay [2].

B4: Fab366 with elbow mutations in the heavy chain (crystallised form) (Fab, V domains shown)
VH: QVQLVQSGAEVKKPGASARVSCKASGYTLTDFYLHWVRQAPGQGLEWMGWLNPHSGGTNYAQKFLGRVSMTRDTSISTAYMELNKLISDDTAVYFCVRSDQEALRGAFDIWGQGTMVFVVS
VL: DIQMTQSPSSLSASVGDTVTITCRASQSINDYLNWYQQKPGKAPKLLIYATSSLHSGVPSRFSGSGFGTDFTLTISSLQPEDSATYLCQQSHSLWTFGQGTKVEVK
notes: as for B2
For the molecule B4, the binding result in the assay with NPNA3 peptide is given as “binds”.
